Format in all cases: biochemical, Synechocystis sp. PCC 6803
Substrate in data set [1]: CC1=C(CCC(=O)O)c2cc3nc(cc4[nH]c(cc4C)cc4[nH]c(cc1n2)cc4C)C(C)=C3CCC(=O)O
The data set can be described thus: continuous fluorometric MgDIX formation assay, Michaelis-Menten fit. Particulars: 5 mM ATP, Mg2+, pH 7.7, 34 °C, I 0.1.

Substrate in data set [2]: Nc1ncnc2c1ncn2[C@@H]1O[C@H](COP(=O)(O)OP(=O)(O)OP(=O)(O)O)[C@@H](O)[C@H]1O
In words: continuous fluorometric MgDIX formation assay, Hill fit. Particulars: 10 mM free Mg2+, 8 μM DIX, pH 7.7, 34 °C.

Substrate in data set [3]: Nc1ncnc2c1ncn2[C@@H]1O[C@H](COP(=O)(O)OP(=O)(O)OP(=O)(O)O)[C@@H](O)[C@H]1O
In words: continuous fluorometric MgDIX formation assay, Michaelis-Menten fit. Particulars: 10 mM free Mg2+, 8 μM DIX, pH 7.7, 34 °C, I 0.1, non-cooperative.

This passage reports Km, kcat and K0.5 results from publication PMC3789969, “The Allosteric Role of the AAA^+ Domain of ChlD Protein from the Magnesium Chelatase of Synechocystis Species PCC 6803” (The Journal of Biological Chemistry, 2013).

B1: magnesium chelatase (ChlI, His6-ChlD, His6-ChlH); porphyrin site (Synechocystis sp. PCC 6803 substr. Kazusa) (protein)
chain: MFTNVKSTIRRVDPEALNGRQLLKVVYVVLESQYQSALSAAVRNINRTNSSLAIQLTGYLIEELRDPENYANFKHDVSEANLFIASLIFIEDLADKVVEAVTPYRDNLDAAIVFPSMPQVMRLNKMGSFSMAQLGQSKSAIAQFMKKRKENSSGAGFQDAMLKLLRTLPTVLKYLPVEKAQDARNFMLSFQYWLGGSQENLENFLLMLTDKYVYPDLGLDKLVNYQEPVVYPDMGIWHPLSMQMFENVKDYLEWYNQRPDISEDLKDPLAPCIGLIMQRTHLVTGDDAHYVGMVQELEAMGARVICVFSGGLDFSKPVNEYFWDKSVNGVEPLPIVDAVVSLTGFALVGGPARQDHPRAIESLKKLNRPYMCALPLVFQTTEEWEASDLGLHPIQVALQIAIPELDGAIEPIILSGRDGSTGRAIALQDRLEAIAQRAMKWANLRKKPKLDKKVAITVFSFPPDKGNVGTAAYLDVFGSIYEVMKGLQGNGYDVQDLPGSAKELMEAVIHDAQAQYNSPELNIAHRMSVEQYERLTPYSVRLEENWGKPPGHLNSDGQNLLIYGKEFGNVFIGVQPTFGYEGDPMRLLFSRSASPHHGFAAYYTYLNHIWKADAVLHFGTHGSLEFMPGKQMGMSGECYPDNLIGTIPNLYYYAANNPSEATIAKRRGYASTISYLTPPAENAGLYKGLQELNELIGSYQTLKDSGRGIQIVNTIMDQARICNLDQDVNLPDINAEEMDQGQRDTIVGSVYRKLMEIESRLLPCGLHVIGQPPSAEEAIATLVNIASLDREDEGIWALPTLIAESIGRNMEEIYRNSDKGILADVELLQDITLATRAAVAALVQEQINADGRVSFVSKLNFFKIGKKAPWVKSLCDSGYPNVNEEKLKPLFEYLEFCLEQVCADNEFGGLLQALEGEYVLPGPGGDPIRNPNVLPTGKNIHALDPQSIPTLAAVQSAKVVVDRLLERQRAENGGNYPETIASVLWGTDNIKTYGESLAQIMWMVGAKPVPDALGRVNKIELVPLEELGRPRIDVVVNCSGVFRDLFINQMNLLDQAVKLAAEADEPLEMNFVRKHALEQAEEMGIGVREAATRIFSNASGSYSSNVNLAVENSSWEDESELQEMYLKRKSFAFNSDNPGMMDQNRDMFERALKTADATFQNLDSSEISLTDVSHYFDSDPTKLISTLRDDGKAPAAYIADTTTANAQVRTLSETVRLDARTKLLNPKWYEGMLSHGYEGVRELSKRLVNTMGWSATAGAVDNWVYEDANSTFIKDEEMCKRLMDLNPNSFRRMVSTLLEVNGRGYWETSDENLERLQELYQEVEDRIEGVE
notes: recombinant from E. coli; His6 tags on ChlD and ChlH; copies are assay ratio; with Magnesium-chelatase subunit ChlI; Magnesium-chelatase subunit ChlD
For orientation: Km means the substrate concentration at which the rate is half of its maximum. What is called kcat is the maximal rate divided by the concentration of active sites. In the case of B1, in data set [1], the Michaelis constant (Km) came out at 5.74 ± 0.77 µM and the kcat was found to be 0.0188 ± 0.001 s⁻¹.

B2: magnesium chelatase (ChlI, His6-ChlD, His6-ChlH); nucleotide sites (Synechocystis sp. PCC 6803 substr. Kazusa) (protein)
chain 1: MTATLAAPSKTRRVVFPFTAIVGQDEMKLALLLNVIDPKIGGVMIMGDRGTGKSTTIRALADLLPEIEVVANDPFNSSPSDPEMMSEEVRIRVDSQEPLSIVKKKVTMVDLPLGATEDRVCGTIDIEKALSEGVKAFEPGLLAKANRGILYVDEVNLLDDHLVDVLLDSAAGGWNTVEREGISIRHPARFVLVGSGNPEEGELRPQLLDRFGMHAEIRTVREPELRVKIVEQRTEFDQNPHPFCDQYQTEQEALQAKIVNAQNLLPQVTIDYDYRVKVSEVCAELDVDGLRGDIVTNRAAKALAAFEGRTEVTVDDISRVIVLCLRHRLRKDPLESIDSGSKVEKVFKRVFGVVDEA
chain 2: not shown
notes: recombinant from E. coli; His6 tags on ChlD and ChlH, ChlI untagged; ATPase sites in ChlI, allosteric nucleotide site proposed in ChlD; with Magnesium-chelatase subunit ChlH
As for B2, in data set [2] (I 0.1, Hill n 2.0 ± 0.2), the K0.5 came to 0.43 ± 0.02 mM and the catalytic constant (kcat) worked out at 0.00675 ± 0.000233 s⁻¹.

B3: magnesium chelatase (ChlI, His6-ChlD, His6-ChlH); nucleotide sites (Synechocystis sp. PCC 6803 substr. Kazusa; P72772:E152Q) (protein)
chain 1: MTATLAAPSKTRRVVFPFTAIVGQDEMKLALLLNVIDPKIGGVMIMGDRGTGKSTTIRALADLLPEIEVVANDPFNSSPSDPEMMSEEVRIRVDSQEPLSIVKKKVTMVDLPLGATEDRVCGTIDIEKALSEGVKAFEPGLLAKANRGILYVDEVNLLDDHLVDVLLDSAAGGWNTVEREGISIRHPARFVLVGSGNPEEGELRPQLLDRFGMHAEIRTVREPELRVKIVEQRTEFDQNPHPFCDQYQTEQEALQAKIVNAQNLLPQVTIDYDYRVKVSEVCAELDVDGLRGDIVTNRAAKALAAFEGRTEVTVDDISRVIVLCLRHRLRKDPLESIDSGSKVEKVFKRVFGVVDEA
chain 2: not shown
notes: as for B2
For the protein B3, in data set [2] (I 0.1, Hill n 1.8 ± 0.17), the K0.5 is 0.72 ± 0.04 mM and the kcat was 0.0018 ± 6.7e-05 s⁻¹.

B4: magnesium chelatase (ChlI, His6-ChlD, His6-ChlH); nucleotide sites (Synechocystis sp. PCC 6803 substr. Kazusa; P72772:R289A) (protein)
chain 1: MTATLAAPSKTRRVVFPFTAIVGQDEMKLALLLNVIDPKIGGVMIMGDRGTGKSTTIRALADLLPEIEVVANDPFNSSPSDPEMMSEEVRIRVDSQEPLSIVKKKVTMVDLPLGATEDRVCGTIDIEKALSEGVKAFEPGLLAKANRGILYVDEVNLLDDHLVDVLLDSAAGGWNTVEREGISIRHPARFVLVGSGNPEEGELRPQLLDRFGMHAEIRTVREPELRVKIVEQRTEFDQNPHPFCDQYQTEQEALQAKIVNAQNLLPQVTIDYDYRVKVSEVCAELDVDGLRGDIVTNRAAKALAAFEGRTEVTVDDISRVIVLCLRHRLRKDPLESIDSGSKVEKVFKRVFGVVDEA
chain 2: not shown
notes: as for B2
For the protein B4, in data set [3], the Michaelis-Menten constant (Km) was 1790 ± 320 µM and the turnover number (kcat) was 0.0009 ± 8.3e-05 s⁻¹.

B5: magnesium chelatase (ChlI, His6-ChlD, His6-ChlH); nucleotide sites (Synechocystis sp. PCC 6803 substr. Kazusa; P72772:R208A) (protein)
chain 1: MTATLAAPSKTRRVVFPFTAIVGQDEMKLALLLNVIDPKIGGVMIMGDRGTGKSTTIRALADLLPEIEVVANDPFNSSPSDPEMMSEEVRIRVDSQEPLSIVKKKVTMVDLPLGATEDRVCGTIDIEKALSEGVKAFEPGLLAKANRGILYVDEVNLLDDHLVDVLLDSAAGGWNTVEREGISIRHPARFVLVGSGNPEEGELRPQLLDRFGMHAEIRTVREPELRVKIVEQRTEFDQNPHPFCDQYQTEQEALQAKIVNAQNLLPQVTIDYDYRVKVSEVCAELDVDGLRGDIVTNRAAKALAAFEGRTEVTVDDISRVIVLCLRHRLRKDPLESIDSGSKVEKVFKRVFGVVDEA
chain 2: not shown
notes: as for B2
Regarding B5, in data set [2] (I 0.1, Hill n 2.0 ± 0.10), the K0.5 came out at 0.78 ± 0.02 mM and the turnover number (kcat) amounted to 0.00438 ± 8.3e-05 s⁻¹.
